According to patent US6759384 (AVENTIS PHARMACEUTICALS, dated 2004):
Starred links: 1 amine or outer side, 2 acyl side, 3 side chain; linkers in the order of their positions; H or OH if unused. Non-standard residues stand in square brackets, D forms with d. Primed or numbered codes have the meaning given here. No end group written: not given here. *: point of attachment. Dab(Nγ-C3H7N)″ = 2,4-diaminobutyric acid with dimethylamidinium (N,N-dimethylformamidinium) on gamma-N, C[N+](C)=CNCC[C@H](N[*:1])C(=O)[*:2]; Dab(Nγ-C3H7N) = Dab bearing Nγ-dimethylamidinium (C3H7N), C[N+](C)=CNCC[C@H](N[*:1])C(=O)[*:2]; (iBu)Tyr = N-isobutyl-L-tyrosine, CC(C)CN([C@@H](Cc1ccc(O[*:3])cc1)C(=O)[*:2])[*:1]; Tyr(Me)″ = O-methyl-tyrosine (source: Y(Me)), COc1ccc(C[C@H](N[*:1])C(=O)[*:2])cc1; Thr(Me) = O-methyl-threonine (source: T(Me)), CO[C@H](C)[C@H](N[*:1])C(=O)[*:2]; Pen(Me) = S-methyl-penicillamine, CSC(C)(C)[C@H](N[*:1])C(=O)[*:2]; Orn(Nδ-C3H7N) = ornithine with dimethylamidinium on delta-N; Phe(4-NH2) = Nc1ccc(C[C@H](N)C(=O)O)cc1; NMeY = CN[C@@H](Cc1ccc(O)cc1)C(=O)O; hArg = N=C(N)NCCCC[C@H](N)C(=O)O; Cha = N[C@@H](CC1CCCCC1)C(=O)O; Agb = N=C(N)NCC[C@H](N)C(=O)O; Chg = N[C@H](C(=O)O)C1CCCCC1; Phg = N[C@H](C(=O)O)c1ccccc1; Isobutyl = CC(C)C*

Target: human factor Xa (Enzyme Research Laboratories, Inc.) (human, UniProt P00742 41-179; P00742 235-488, limits assumed)
Assay: chromogenic FXa inhibition
Method: TBS-P buffer (50 mM Tris-Cl, pH 7.8, 200 mM NaCl, 0.05% (w/v) PEG-8000, 0.02% (w/v) NaN_3) was used for this assay. The IC$50$ was determined by combining in appropriate wells of a Costar half-area microtiter plate 25 μl human factor Xa (Enzyme Research Laboratories, Inc.; South Bend Ind.) in TBS-P; 40 μl 10% (v/v) DMSO in TBS-P (uninhibited control) or various concentrations of a peptide to be tested diluted in 10% (v/v) DMSO in TBS-P; and substrate S-2765 (Nα-benzyloxycarbonyl-D-Arg-Gly-L-Arg-p-nitroanilide; Kabi Pharmacia, Inc.; Franklin Ohio) in TBS-P.
The assays were performed by pre-incubating the peptide inhibitor plus enzyme for 10 min, then the assay was initiated by adding substrate to obtain a final volume of 100 μl. The initial velocity of chromogenic substrate hydrolysis was measured by the change in absorbance at 405 nm using a Bio-tek Instruments kinetic plate reader (Ceres UV900HDi) at 25° C. during the linear portion of the time course (usually 1–5 min after addition of substrate). The concentration of inhibitor that caused a 50% decrease in the rate of substrate hydrolysis was predicted by linear regression after plotting the relative rates of hydrolysis (compared to the uninhibited control) versus the log of the peptide concentration. The enzyme concentration was 0.5 nM and substrate concentration was 140 μM.

Chain of human factor Xa (Enzyme Research Laboratories, Inc.) (P00742 41-179 limits assumed, chain 1 of 2): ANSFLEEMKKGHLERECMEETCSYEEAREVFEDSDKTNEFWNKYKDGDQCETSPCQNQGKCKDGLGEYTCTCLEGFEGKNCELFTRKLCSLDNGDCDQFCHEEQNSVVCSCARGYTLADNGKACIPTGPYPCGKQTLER
Chain of human factor Xa (Enzyme Research Laboratories, Inc.) (P00742 235-488 limits assumed, chain 2 of 2): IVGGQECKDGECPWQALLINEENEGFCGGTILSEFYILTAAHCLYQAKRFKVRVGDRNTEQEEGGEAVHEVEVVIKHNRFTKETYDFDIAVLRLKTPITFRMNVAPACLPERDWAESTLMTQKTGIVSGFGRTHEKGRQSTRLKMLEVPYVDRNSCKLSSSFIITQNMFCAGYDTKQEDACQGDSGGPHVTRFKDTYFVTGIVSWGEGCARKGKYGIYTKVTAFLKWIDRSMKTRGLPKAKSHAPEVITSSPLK

Binder: Ac-[(iBu)Tyr]I[Orn(Nδ-C3H7N)]LP-NH2 [Ac-(iBu)Y-I-Orn(N^δ-C3H7N)-L-P-NH2]
- Ki: < 100 µM

Binder: Isobutyl-YIRLA-NH2 [(iBu)Y-I-R-L-A-NH2]
- Ki: < 100 µM

B1: Ac-Y(Me)-I-R-L-A-NH2 (peptide)
peptide: Ac-[Tyr(Me)″]IRLA-NH2
SMILES: CC[C@H](C)[C@H](NC(=O)[C@H](Cc1ccc(OC)cc1)NC(C)=O)C(=O)N[C@@H](CCCNC(=N)N)C(=O)N[C@@H](CC(C)C)C(=O)N[C@@H](C)C(N)=O
- Ki: < 100 µM

B2: Ac-(Me)Y-I-R-L-A-NH2 (peptide)
peptide: Ac-[NMeY]IRLA-NH2
SMILES: CC[C@H](C)[C@H](NC(=O)[C@H](Cc1ccc(O)cc1)N(C)C(C)=O)C(=O)N[C@@H](CCCNC(=N)N)C(=O)N[C@@H](CC(C)C)C(=O)N[C@@H](C)C(N)=O
- Ki: < 100 µM

B3: F(pNH2)-I-R-L-A-NH2 (peptide)
peptide: [Phe(4-NH2)]IRLA-NH2
modifications: N-terminus assumed
SMILES: CC[C@H](C)[C@H](NC(=O)[C@@H](N)Cc1ccc(N)cc1)C(=O)N[C@@H](CCCNC(=N)N)C(=O)N[C@@H](CC(C)C)C(=O)N[C@@H](C)C(N)=O
- Ki: < 100 µM

Binder: Ac-[(iBu)Tyr]I[Dab(Nγ-C3H7N)″]LP-NH2 [Ac-(iBu)Y-I-Dab(N^γ-C3H7N)-L-P-NH2]
- Ki: < 100 µM

B4: y-I-(nR)-L-A-NH2 (peptide)
peptide: [dY]I[Agb]LA-NH2
modifications: N-terminus assumed
SMILES: CC[C@H](C)[C@H](NC(=O)[C@H](N)Cc1ccc(O)cc1)C(=O)N[C@@H](CCNC(=N)N)C(=O)N[C@@H](CC(C)C)C(=O)N[C@@H](C)C(N)=O
- Ki: < 100 µM

B5: Ac-Y-I-nR-L-A-NH2 (peptide)
peptide: Ac-YI[Agb]LA-NH2
SMILES: CC[C@H](C)[C@H](NC(=O)[C@H](Cc1ccc(O)cc1)NC(C)=O)C(=O)N[C@@H](CCNC(=N)N)C(=O)N[C@@H](CC(C)C)C(=O)N[C@@H](C)C(N)=O
- Ki: < 100 µM

B6: Ac-Y-I-hR-L-A-NH2 (peptide)
peptide: Ac-YI[hArg]LA-NH2
SMILES: CC[C@H](C)[C@H](NC(=O)[C@H](Cc1ccc(O)cc1)NC(C)=O)C(=O)N[C@@H](CCCCNC(=N)N)C(=O)N[C@@H](CC(C)C)C(=O)N[C@@H](C)C(N)=O
- Ki: < 100 µM

B7: Ac-Y-I-Dab(N^γC3H7N)-L-A-NH2 (peptide)
peptide: Ac-YI[Dab(Nγ-C3H7N)]LA-NH2
SMILES: CC[C@H](C)[C@H](NC(=O)[C@H](Cc1ccc(O)cc1)NC(C)=O)C(=O)N[C@@H](CCNC=[N+](C)C)C(=O)N[C@@H](CC(C)C)C(=O)N[C@@H](C)C(N)=O
- Ki: < 100 µM

Binder: Ac-[NMeY][Chg]RLP-NH2 [Ac-(Me)Y-Chg-R-L-P-NH2]
- Ki: < 100 µM

Binder: Ac-Y[Phg]RLP-NH2 [Ac-Y-Pgl-R-L-P-NH2]
- Ki: < 100 µM

Binder: Ac-Y[Cha]RLP-NH2 [Ac-Y-Cha-R-L-P-NH2]
- Ki: < 100 µM

Binder: Ac-Y[Pen(Me)]RLP-NH2 [Ac-Y-Pen(Me)-R-L-P-NH2]
- Ki: < 100 µM

Binder: Ac-[(iBu)Tyr][Chg]RLP-NH2 [Ac-(iBu)Y-Chg-R-L-P-NH2]
- Ki: < 100 µM

Binder: Ac-Y[Thr(Me)]RLP-NH2 [Ac-Y-T(Me)-R-L-P-NH2]
- Ki: < 100 µM

Binder: YXRLP (N-term Ac; residue 2 = allo-Ile; C-term NH2) [Ac-Y-(allo-I)-R-L-P-NH2]
- Ki: < 100 µM
